Laboratory results taken from PMC3646915 (Journal of molecular biology, 2013).
Numbering of substitutions follows the chain as printed. Where two headings read alike, the source gives them in different places.

T1: porcine mitochondrial malate dehydrogenase (porcine, UniProt P00346 25-338)
T1 sequence (looked up): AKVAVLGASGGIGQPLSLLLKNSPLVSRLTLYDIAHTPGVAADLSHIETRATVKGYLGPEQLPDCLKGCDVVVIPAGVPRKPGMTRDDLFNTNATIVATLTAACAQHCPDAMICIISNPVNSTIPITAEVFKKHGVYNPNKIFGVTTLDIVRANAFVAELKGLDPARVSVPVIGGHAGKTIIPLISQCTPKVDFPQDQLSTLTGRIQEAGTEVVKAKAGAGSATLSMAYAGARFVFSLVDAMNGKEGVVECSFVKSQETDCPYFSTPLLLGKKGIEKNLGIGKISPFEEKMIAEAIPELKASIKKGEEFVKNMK

B1: AtHsp18.5 with N-terminal Strep II tag (natural protein, Arabidopsis thaliana, UniProt O64564 1-162, looked up)
chain: MSMIPISNRRRLSPGDRIWEPFELMNTFLDFPSPALFLSHHFPSLSREIFPQTSSSTVNTQLNWTETPTAHVFKAYLPGVDQDEVIAFVDEEGYLQICTGDNKFMSRFKLPNNALTDQVTAWMEDEFLVVFVEKDASSSPPQLPEIEENRNVRVVEITGDDD
B2: AtHsp18.5 with C-terminal Strep II tag (natural protein, Arabidopsis thaliana, UniProt O64564 1-162, looked up)
chain: B1 chain
B3: AtHsp18.5 tryptic fragment 48–153 (domain or fragment, Arabidopsis thaliana, UniProt O64564 48-153, looked up)
chain: EIFPQTSSSTVNTQLNWTETPTAHVFKAYLPGVDQDEVIAFVDEEGYLQICTGDNKFMSRFKLPNNALTDQVTAWMEDEFLVVFVEKDASSSPPQLPEIEENRNVR
B4: AtHsp18.5 tryptic fragment 11–150 (domain or fragment, Arabidopsis thaliana, UniProt O64564 11-150, looked up)
chain: RLSPGDRIWEPFELMNTFLDFPSPALFLSHHFPSLSREIFPQTSSSTVNTQLNWTETPTAHVFKAYLPGVDQDEVIAFVDEEGYLQICTGDNKFMSRFKLPNNALTDQVTAWMEDEFLVVFVEKDASSSPPQLPEIEENR
B5: AtHsp18.5 tryptic fragment 11–153 (domain or fragment, Arabidopsis thaliana, UniProt O64564 11-153, looked up)
chain: RLSPGDRIWEPFELMNTFLDFPSPALFLSHHFPSLSREIFPQTSSSTVNTQLNWTETPTAHVFKAYLPGVDQDEVIAFVDEEGYLQICTGDNKFMSRFKLPNNALTDQVTAWMEDEFLVVFVEKDASSSPPQLPEIEENRNVR
B6: AtHsp18.5 tryptic fragment 12–153 (domain or fragment, Arabidopsis thaliana, UniProt O64564 12-153, looked up)
chain: LSPGDRIWEPFELMNTFLDFPSPALFLSHHFPSLSREIFPQTSSSTVNTQLNWTETPTAHVFKAYLPGVDQDEVIAFVDEEGYLQICTGDNKFMSRFKLPNNALTDQVTAWMEDEFLVVFVEKDASSSPPQLPEIEENRNVR
B7: AtHsp18.5 truncation mutant 25–153 (domain or fragment, Arabidopsis thaliana, UniProt O64564 25-153, looked up)
chain: MNTFLDFPSPALFLSHHFPSLSREIFPQTSSSTVNTQLNWTETPTAHVFKAYLPGVDQDEVIAFVDEEGYLQICTGDNKFMSRFKLPNNALTDQVTAWMEDEFLVVFVEKDASSSPPQLPEIEENRNVR
B8: PsHsp18.1, cytosolic class I sHSP from Pisum sativum (natural protein, UniProt P19243 1-158, looked up)
chain: MSLIPSFFSGRRSNVFDPFSLDVWDPLKDFPFSNSSPSASFPRENPAFVSTRVDWKETPEAHVFKADLPGLKKEEVKVEVEDDRVLQISGERSVEKEDKNDEWHRVERSSGKFLRRFRLPENAKMDKVKASMENGVLTVTVPKEEIKKAEVKSIEISG
B9: AtHsp18.5 with Cys98 substituted by Ala (natural protein, Arabidopsis thaliana, UniProt O64564 1-162, looked up)
chain: B1 chain with C98A

Assays:
native gel or EMSA = biological target: the molecule itself; experiment: native gel or EMSA
[1] = biological target: B6; experiment: native MS
[2] = biological target: B4; experiment: native MS
[3] = biological target: B5; experiment: native MS
native MS [4] = biological target: the molecule itself; experiment: native MS
native MS [5] = biological target: the molecule itself; experiment: native MS; remark: listed apart in the source
[6] = biological target: T1, porcine mitochondrial malate …; experiment: SEC
firefly luciferase = firefly luciferase (firefly, UniProt P08659 1-550 = luciferase); experiment: SEC
Sequence of firefly luciferase (P08659 whole entry): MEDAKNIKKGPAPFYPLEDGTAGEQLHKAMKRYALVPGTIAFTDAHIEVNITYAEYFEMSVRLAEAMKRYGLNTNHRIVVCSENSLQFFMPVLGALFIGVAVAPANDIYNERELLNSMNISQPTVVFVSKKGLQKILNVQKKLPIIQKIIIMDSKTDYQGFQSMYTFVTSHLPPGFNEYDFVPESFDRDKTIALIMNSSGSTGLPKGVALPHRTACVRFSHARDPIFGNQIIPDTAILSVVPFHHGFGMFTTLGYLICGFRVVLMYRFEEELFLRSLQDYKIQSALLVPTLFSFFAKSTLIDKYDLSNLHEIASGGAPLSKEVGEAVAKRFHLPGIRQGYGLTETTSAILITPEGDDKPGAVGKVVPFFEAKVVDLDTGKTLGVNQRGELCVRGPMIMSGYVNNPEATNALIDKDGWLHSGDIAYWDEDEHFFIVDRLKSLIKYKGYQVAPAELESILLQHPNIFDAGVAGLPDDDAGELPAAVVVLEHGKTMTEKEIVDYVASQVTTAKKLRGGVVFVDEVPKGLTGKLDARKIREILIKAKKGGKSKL

[7] = biological target: the molecule itself; experiment: native gel or EMSA + cross-linking + native MS + AUC

B1
stoichiometry N (native gel or EMSA): 2

B2
stoichiometry N (native gel or EMSA): 2

B3
binding result [1]: binds
binding result [2]: binds
binding result [3]: binds

B4
binding result (native MS [4]): binds

B5
binding result (native MS [4]): binds

B6
binding result (native MS [4]): binds

B7
binding result (native MS [5]): binds

B8
binding result [6]: binds
binding result (firefly luciferase): binds

B9
stoichiometry N [7]: 2
